Drawing on a protein production outcome set (Wang et al. 2014), this text covers protein production for 20 sequences.

This data set can be described thus: label from the status in PepcDB records.
On to “MDLEEQKKAVIEKLIREGYIKSKRVIDALLKVPREEFLPEHLKEYAYVDTPLEIGYGQTISAIHMVGMMCELLDLKPGMKVLEIGTGCGYHAAVTAEIVGEDGLVVSIERIPELAEKAERTLRKLGYDNVIVIVGDGTLGYEPLAPYDRIYTTAAGPKIPEPLIRQLKDGGKLLMPVGRYLQRLVLAEKRGDEIIIKDCGPVAFVPLVGKEGFQG”, for which the protein production result is “not failed”.

For “MDLEINKGIGRNVEFKGLESQYLFIFCGGLLAVFVVFVILYMAGVNQWVCIGFGVAAATLLVWLTFRLNARYGTHGLMKAAARRRHPRYVVNRLKIPRLFTFKHWQE”, the protein production entry was “failed”.

With “MDLFDTPLAPLQVLDDAEGGVRYWPQLLAPAVAQAAFAALRDGADWQRHQRTMYDRVVDVPRLLASYRLDAPLPPGLPLQLLLAAVQAQLPAPYNAVGLNLYRDGRDSVAMHHDKLHTLLAPHPIALLSLGTPRRMQLRAKQGATRAITLELAPGSLLAMSHASQLTHEHGIPKTTRALGERISVVFRVRPPARMAAGQHGPHWEALTQTDLEHHHHHH”, the protein production entry was “not failed”.

For “MDLFNLLDGITFWHWLAFGFVLLAVELLGTAGYFLWLGLSALLVGALLAVLPFGWQLQWLSFATFSLLTTWLWWRRQWSRDKQDDQTRDLNQKYKQLIGRSVILEEDFSIGLNRIRIADTTWSAQCEQNIRAGTRVKIVAIDGIILIVEPISE”, the protein production result is “failed”.

As to “MDLFSNLALGFQVAASPTNLLLCLTGALVGTLIGVLPGIGTIATVAMLLPITFGLPPVGALIMLAGIYYGAQYGGSTTSILVNIPGEATSVVTTLDGFQMAKQGRAGPALAIAAIGSFAAGCFATVLIALVGEPLTRLALEFGPAEYFSLMVLGLVFAVVLARGSVLKAVAMIVLGLLLSTVGSDIETGVSRMTFDVPELADGLGFATVAMGVFGFAEIIRNLDFGAATDRELVQQKITGLMPTRKDLRDAAPAIGRGTLLGSLLGILPGGGAVIASFAAYTLEKKIARDPKRFGRGAIEGVAAPESANNAAAQTSFIPLLTLGIPPNAVMALMVGAMTIHNIVPGPQVMKNQPELVWGMIASMWIGNLMLLVINLPLVGIWVRLLRVPYRLMFPSIVVFCCIGIYSVNNAPVDVVLAGAFGLIGYWLVKHDFEPAPLLLGMVLGPLMEDNLRRALLISRGDATAFVTRPLSASLLVVAAGLLILSVLPMLRRKRDEVFVESEG”, the protein production entry is on record as “failed”.

“MDLGPEQIFGAPCRKCKEKCEGFELHFWKKTCRNCKCGQEEHGILLSTEEDRKVGRIIEDGKDTNQIAKLKADEIPMDKTSETVLNKPEPEKKDDFTKTVSYEWVPSVQNKALTRQYMQMLPKEKQPVSGSEGAQYRKKQLAKQLPAHDQDPNKCHELSRKEAKEMRQFVKKYKNEALGVGDVRLPSEMNVQHYKGHNPATDRNTPTAVDFKDTSMEPKKPQYSCYSCKHAVKEGNPAIFAERAGYDKLWHPACFICTICGEILVDMIYFWKNGKLYCGRHYCDSEKPRCAGCDELIFSNEYTQAENKNWHLIHFCCFHCHNVLAGKIYVMVGSKPVCKSCYMKIHAVVCQGCHNAIDPEEQRVIYQNFSWHASTACFLCSCCSKCLLGKKFIRVEGMIFCSIECKNMMS”: the protein production result is recorded as “failed”.

As for “MDLKTSYKGISLNPIYAGSSAVATVSENGKILATPVLDEINIIDLTPGSRKILHKISNEDEQEITALKLTPDGQYLTYVSQAQLLKIFHLKTGKVVRSMKISSPSYILDADSTSTLLAVGGTDGSIIVVDIENGYITHSFKGHGGTISSLKFYGQLNSKIWLLASGDTNGMVKVWDLVKRKCLHTLQEHTSAVRGLDIIEVPDNDEPSLNLLSGGRDDIINLWDFNMKKKCKLLKTLPVNQQVESCGFLKDGDGKRIIYTAGGDAIFQLIDSESGSVLKRTNKPIEELFIIGVLPILSNSQMFLVLSDQTLQLINVEEDLKNDEDTIQVTSSIAGNHGIIADMRYVGPELNKLALATNSPSLRIIPVPDLSGPEASLPLDVEIYEGHEDLLNSLDATEDGLWIATASKDNTAIVWRYNENSCKFDIYAKYIGHSAAVTAVGLPNIVSKGYPEFLLTASNDLTIKKWIIPKPTASMDVQIIKVSEYTRHAHEKDINALSVSPNDSIFATASYDKTCKIWNLENGELEATLANHKRGLWDVSFCQYDKLLATSSGDKTVKIWSLDTFSVMKTLEGHTNAVQRCSFINKQKQLISCGADGLIKIWDCSSGECLKTLDGHNNRLWALSTMNDGDMIVSADADGVFQFWKDCTEQEIEEEQEKAKLQVEQEQSLQNYMSKGDWTNAFLLAMTLDHPMRLFNVLKRALGESRSRQDTEEGKIEVIFNEELDQAISILNDEQLILLMKRCRDWNTNAKTHTIAQRTIRCILMHHNIAKLSEIPGMVKIVDAIIPYTQRHFTRVDNLVEQSYILDYALVEMDKLF”, the protein production result is recorded as “failed”.

Regarding “MDLLAMNIPVSLQSKPPLWLLAELTYRCPLQCAYCSNPLDYAAVKQELSTDEWKDVFRQARAMGSVQLGFSGGEPLLRQDLSELIKYAHELGFYTNLITSGIGLTEQKIAEFSEAGLDHIQISFQASDPALSEILSGSRKAFQQKQAMALAVKKHRYPMVLNFVIHRFNIEQIDQIIELSLELNADYVELATCQFYGWAKLNQAALLPTPEQISYAQARVQAYRQYIDQHHLKTKLLLVAPDYYQERPKKCIGGWGQIFITVSPDGTVLPCQSAKDLPLEFPTIQDQSLKTIWNEAFAFNAFRGTDWMQEPCRSCPDKDKDLGGCRCQAYMLTKNMYATDPVCSKSPVHHQIVEARLQTQCSKPDISDLKLRNPQNSKLFFKRASDADSLL”, the protein production result is on record as “failed”.

For “MDLLATRGDPVSDFSVGRVRGRHLAVPPIRHSAAPSNRHSEAPSSRARAADLDAIRLTGIAAVVVGHVWTSGPFTDALFAWHVPVFFILTGYLWKSGRTVRDEISRRSKTLLVPYVAWLAVLSVAFASVEYLRGGSLPVEALRNAVYGGAFAVRPYSAFWFVPVLFFTAVLFRWLERFPPWMAWIIAGLGLAASVFAGEVMAKTPLGIALAVPCLVFVLVGRALPAMVHRVRYKTAVGVGLVLAGVALTVGGVVQPLNMKDGDFGTVALSVVNASAISLGLILVFAALYRMVSPAVNRLTIQLASAGLVVVLTHAFFLYLLNTPASGSIFDAVVALAVPFALALLVLRSPLRRWLVG”, the protein production entry was “failed”.

Consider “MDLLLKAALGAAVVVILAALAKTRNYYIAGLVPLFPTFALIAHYIVGKGRSLDDLKTTILFGMWSIIPYFVYLATLYVMVDRLRLEASLAVAAVAWLIAATILVSVWVRLHA”, for which the protein production result was “failed”.

Turning to “MDLLQFLIDKNNVFIVAVAVVSGIMLMLPALRKGRAGAAVGTSEAIQMVNQRQAVWVDVRPTEQFQAGHIAQARSLPAADLEKKAGALPKNKPLIVVCEQGRDAARIAARLRSQGFAEVSVLEGGMRAWFAAGLPVTQKG”, the protein production entry was “failed”.

In the case of “MDLNFSKEEIAFRDEVRQFFKDNVPAKTRQKLIEGRHNTKEEMVEWYRILNKKGWAVTHWPKEYGGTGWSSVQHYIFNEELQAAPAPQPLAFGVSMVGPVIYTFGSEEQKKRFLPRIANVDDWWCQGFSEPGSGSDLASLKTKAEKKGDKWIINGQKTWTTLAQHADWIFCLCRTDPAAKKQEGISFILVDMKTKGITVRPIQTIDGGHEVNEVFFDDVEVPLENLVGQENKGWDYAKFLLGNERTGIARVGMSKERIRRIKQLAAQVESGGKPVIEDPKFRDKLAAVEIELKALELTQLRVVADEGKHGKGKPNPASSVLKIKGSEIQQATTELLMEVIGPFAAPYDVHGDDDSNETMDWTAQIAPGYFNNRKVSIYGGSNEIQRNIICKAVLGL”, the protein production result is “failed”.

Turning to “MDLSVVVPTLNARDALLDALDALAAHAPAAEVVVANGPSVDGTSGTVRDHDAVDTLLELSERNLNAARNAGIAATNGTVVAFIGQDTHIQPGWTNAVADAIADGADAVTGPVHRTVEGGVTTESVDEATVSGRDVTFFDGANVAITRRALRALDGFDEALQTGAARDAAHRLAGMDRRVAWAPNACVLRTDADDVIHRLPEDADSSARGLKYRALAYRLTKNYGATAAITARVLRHAVGDAASVGGAVLRGDADLSTWVGAGLAVLPGLWRGSQAGLSARVADRTTTRNPNGVSTRMDRVHARHD”, the protein production entry is reported as “failed”.

Take “MDLVEKVKELCLELEEENLAKAIERFITLTHGIEKTRGEAFAKASIYGFLEGILTTLKMKYSNEKIETLLNEVKTAREETEALLRKPRPPLLVDNDL”: the protein production entry was “not failed”.

As for “MDLWKLYQPGTPAAIVAWGQLGTAHAKTTYGLLRHSRLFKPVCVVAEHEGKMASDFVKPVRYDVPVVSSVEKAKEMGAEVLIIGVSNPGGYLEEQIATLVKKALSLGMDVISGLHFKISQQTEFLKIAHENGTRIIDIRIPPLELDVLRGGIYRKKIKVVGVFGTDCVVGKRTTAVQLWERALEKGIKAGFLATGQTGILIGADAGYVIDAVPADFVSGVVEKAVLKLEKTGKEIVFVEGQGALRHPAYGQVTLGLLYGSNPDVVFLVHDPSRDHFESFPEIPKKPDFEEERRLIETLSNAKVIGGVSLNGGFETDLPVYDPFNTDDLDEMLERAMVW”, the protein production entry is “not failed”.

Turning to “MDMGNQHPSISRLQEIQREVKAIEPQVVGFSGLSDDKNYKRLERILTKQLFEIDSVDTEGKGDIQQARKRAAQETERLLKELEQNA”, the protein production entry is given as “not failed”.

With “MDMIKPDFQQIRRDKFRVEQMNDFPNTWTQQQHQNIRIPNNLDLIGILQNQISVPVQTDLYQDSAATFMNMPQSIHRDPQGPSNWRISDLSQPSTVNHGYDQAGIRPNNVADLLSDHFSSRNQILDRPLYVGRDSIPQSSMIRRSEVSCLDDNQKGCVTVACSGTGNEILRSSYDQGSSSGSYRGEFSFLPSLENQSVAHNASNWNHGPVNVTATSHTNSKKGFPLSLLSDIPPSRDVGNAAVLSTMNIHGPLGPFTGYASILKSSRFLEPAQKMLEEFCISYASKIISRSESTSMEDDDDDDDNLSGFSSSSEPLEPKNRLKKAKLLFLQEEVCKWYKLYNHQLQTVMSSFNTVAGLNTATPYISLALKRTSRSFKALRTAIAEHVKQISSHSSNGNNNNRFQKRQRSLIGNNVGFESQQQHIWRPQRGLPERAVAVLRAWLFDHFLHPYPTDSDKQMLATQTGLSRNQVSNWFINARVRLWKPMVEEIHTLETKAIKNADTSHNIEPSNRPNTVSSPSHEQTLTGLSGTKRSRLEYMDMVGFNRGNVSLTLELRRGVDNVIQTQTQDHQFGTGSQMFHDFVG”, the protein production entry is reported as “failed”.

With “MDMKAPIKVYMTKKLLGVKPSTSVQEASRLMMEFDVGSLVVINDDGNVVGFFTKSDIIRRVIVPGLPYDIPVERIMTRNLITANVNTPLGEVLRKMAEHRIKHILIEEEGKIVGIFTLSDLLEASRRRLETAISAE”, the protein production result is “not failed”.

With “MDMKKHGLSIGINRIESVFFVTLKAIGTLTHEDYLVITPMLEGALSQVDQPKVSLFLDATELDGWDLRAAWDDLKLGLKHKSEFERVAILGNKDWQEWAAKIGSWFIAGEIKYFEDEDDALKWLRY”, the protein production entry is reported as “not failed”.

Take “MDNGDWGYMMTDPVTLNVGGHLYTTSLTTLTRYPDSMLGAMFGGDFPTARDPQGNYFIDRDGPLFRYVLNFLRTSELTLPLDFKEFDLLRKEADFYQIEPLIQCLNDPKPLYPMDTFEEVVELSSTRKLSKYSNPVAVIITQLTITTKVHSLLEGISNYFTKWNKHMMDTRDCQVSFTFGPCDYHQEVSLRVHLMEYITKQGFTIRNTRVHHMSERANENTVEHNWTFCRLARKTDD”: the protein production result is reported as “failed”.
